Source: publication PMC11496930, “Targeting RSV-neutralizing B cell receptors with anti-idiotypic antibodies” (Cell Reports, 2024)

B1: 2C1 recombinant IgG (human constant regions) (antibody, V domains shown)
VH: QVQLQQSGAELVRPGASVTLSCKASGYIFTDYEIHWLKQTPVHGLEWIGTSDPETGGFAYTQKFKGKAILTADKSSSTAYMELRSLTSEDSAVYYCTRRPYYGSGAWFAYWGQGTLVTVSA
VL: DIVMTQSHKFMSTSVGDRVSITCKANHDVNIAVAWYQQKPGQSPKLLIYSASYRYTGVPDRFTGSGSGTDFTFTISSVQAEDLAVYYCQQHYDTPRTFGGGTKLEIK
notes: also called 2C1-IgG; 2C1 IgG; source: 293-6E cells, purified (Protein A)
B2: 1D3 recombinant IgG (human constant regions) (antibody, V domains shown)
VH: QVQIQQSGAELMRPGASVKLSCKATGYTFTGYWIEWVKQRPGHGLEWIGEILSGRGTTNYNEKFKGKATFTADTYSNTAYMQLSSLTTGDSAIYYCARGGFLYGDGPFDYWGQGTTLTVSS
VL: DILLTQSPAILSVSPGERVSFSCRASQNIDTHIHWYQQRTNGSPRLLIKYASESISGIPSRFSGSGSGTDFTLTINSVESEDIADYYCQQSNSWPFTFGSGTKLEIK
notes: also called 1D3-IgG; 1D3 IgG; source: 293-6E cells, purified (Protein A)

Biological target: ADI-19425 Fab (human, UniProt P0DOY2)
Sequence (VH, as listed by the source, chain 1 of 2): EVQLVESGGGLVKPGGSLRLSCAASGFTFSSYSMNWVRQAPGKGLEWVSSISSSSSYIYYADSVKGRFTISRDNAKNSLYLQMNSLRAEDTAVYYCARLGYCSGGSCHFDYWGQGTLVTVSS
Sequence (VL, as listed by the source, chain 2 of 2): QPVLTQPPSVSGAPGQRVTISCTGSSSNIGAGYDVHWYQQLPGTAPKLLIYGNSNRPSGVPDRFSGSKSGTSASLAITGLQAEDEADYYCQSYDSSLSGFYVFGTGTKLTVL
Test: BLI; 1D3 IgG or 2C1 IgG (67 nM) on anti-human IgG capture sensors; ADI-19425 Fab in serial dilutions from 250 nM to 0 nM; KB buffer, 30°C; 1:1 binding model
Details: both partners purified

Binder	Kd [nM]
B1	1.5
B2	0.4
